The text below walks through data of article PMC2930513.

Assay [1] has as its target HIV-1 BaL Env trimer (cleaved gp120/gp41) on Gag-Env VLPs (HIV-1 strain BaL). Description: native gel or EMSA.
The target in assay [2] is HIV-1 JR-FL Env trimer (cleaved gp120/gp41) from JR-FL Gag-Env VLPs (HIV-1 strain JR-FL). Description: native gel or EMSA. On the technique in general: In EMSA bound probe runs differently from free probe, usually more slowly.

For the substance “HIV-1 BaL Env trimer (cleaved gp120/gp41) on Gag-Env VLPs (complex)”, the stoichiometry N (as a rule, the number of molecules, sites or subunits per partner or assembly) in assay [1] amounted to 3. The substance “HIV-1 JR-FL Env trimer (cleaved gp120/gp41) from JR-FL Gag-Env VLPs (complex)” returned a stoichiometry N in assay [2] of 3.
